The data set “AUC” concerns the molecule itself. Kind of data set: AUC.
Data set [1] has as its target T1, SfiI D100A (UniProt O52512 1-269, D100A).
T1 sequence: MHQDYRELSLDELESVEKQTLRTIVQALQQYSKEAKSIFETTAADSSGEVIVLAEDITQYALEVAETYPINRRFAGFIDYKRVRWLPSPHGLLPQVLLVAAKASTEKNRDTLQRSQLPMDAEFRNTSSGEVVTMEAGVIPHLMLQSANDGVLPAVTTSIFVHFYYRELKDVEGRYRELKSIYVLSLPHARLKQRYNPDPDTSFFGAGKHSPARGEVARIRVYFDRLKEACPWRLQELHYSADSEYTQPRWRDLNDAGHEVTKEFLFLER
Put plainly: EMSA. (In general: A gel shift assay detects complexes by their altered migration in electrophoresis.)

In data set [2] the target is T2, SfiI endonuclease wt (UniProt O52512 1-269).
T2 sequence: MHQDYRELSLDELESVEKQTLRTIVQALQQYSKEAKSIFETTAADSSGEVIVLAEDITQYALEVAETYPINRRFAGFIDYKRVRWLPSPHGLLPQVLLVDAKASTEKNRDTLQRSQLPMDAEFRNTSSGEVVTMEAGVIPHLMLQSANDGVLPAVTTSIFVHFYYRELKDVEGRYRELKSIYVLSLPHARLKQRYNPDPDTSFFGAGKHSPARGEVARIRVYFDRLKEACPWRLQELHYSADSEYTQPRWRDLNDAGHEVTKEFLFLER
Put plainly: EMSA.

The target of data set [3] is T3, SfiI D79A (UniProt O52512 1-269, D79A).
T3 sequence: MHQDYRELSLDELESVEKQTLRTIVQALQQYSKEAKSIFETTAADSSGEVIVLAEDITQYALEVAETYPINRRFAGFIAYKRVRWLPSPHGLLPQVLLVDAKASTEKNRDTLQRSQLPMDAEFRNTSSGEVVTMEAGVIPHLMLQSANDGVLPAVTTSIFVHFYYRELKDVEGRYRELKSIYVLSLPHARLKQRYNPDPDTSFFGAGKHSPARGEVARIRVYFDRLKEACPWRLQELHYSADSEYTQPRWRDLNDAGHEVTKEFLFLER
Put plainly: EMSA.

For data set [4], the target named is T3, SfiI D79A. Kind of data set: competition.
Data set [5] addresses T1, SfiI D100A. Kind of data set: competition.
Data set [6] deals with T2, SfiI endonuclease wt. Kind of data set: competition.

A word on the stoichiometry N: it is a count of units in the complex or per binding partner. For orientation: Kd means the free concentration of one partner at which half of the binding sites on the other are occupied at equilibrium, for simple one-to-one binding. Read a low Kd as higher affinity.

B1: SfiI restriction endonuclease D79A mutant (enzyme)
chain: MHQDYRELSLDELESVEKQTLRTIVQALQQYSKEAKSIFETTAADSSGEVIVLAEDITQYALEVAETYPINRRFAGFIAYKRVRWLPSPHGLLPQVLLVDAKASTEKNRDTLQRSQLPMDAEFRNTSSGEVVTMEAGVIPHLMLQSANDGVLPAVTTSIFVHFYYRELKDVEGRYRELKSIYVLSLPHARLKQRYNPDPDTSFFGAGKHSPARGEVARIRVYFDRLKEACPWRLQELHYSADSEYTQPRWRDLNDAGHEVTKEFLFLER
For B1, in “AUC”, the “stoichiometry N” value worked out at 4.

B2: SfiI restriction endonuclease D100A mutant (enzyme)
chain: MHQDYRELSLDELESVEKQTLRTIVQALQQYSKEAKSIFETTAADSSGEVIVLAEDITQYALEVAETYPINRRFAGFIDYKRVRWLPSPHGLLPQVLLVAAKASTEKNRDTLQRSQLPMDAEFRNTSSGEVVTMEAGVIPHLMLQSANDGVLPAVTTSIFVHFYYRELKDVEGRYRELKSIYVLSLPHARLKQRYNPDPDTSFFGAGKHSPARGEVARIRVYFDRLKEACPWRLQELHYSADSEYTQPRWRDLNDAGHEVTKEFLFLER
As to B2, the “stoichiometry N” value in the data set “AUC” was found to be 4.

B3: HEX-35 (dsDNA)
DNA 1: TCGATCCATGTGGCCAACAAGGCCTATTTGTCGAT
DNA 2: ATCGACAAATAGGCCTTGTTGGCCACATGGATCGA
B3: the Kd with SfiI D100A [1], with SfiI endonuclease wt [2] and with SfiI D79A [3] was under 10 nM throughout.

B4: C-21 (dsDNA)
DNA 1: ATGTGGCCAACAAGGCCTATT
DNA 2: AATAGGCCTTGTTGGCCACAT
With B4, the binding result with SfiI D79A [4], in the data set with SfiI D100A [5] and with SfiI endonuclease wt [6] was “binds” in each case.

The values above are taken from article PMC2760798 (Nucleic Acids Research, 2009).
